One molecule from US6835378B2, “Method and compositions for inhibiting thrombin-induced coagulation” (The Texas A&M University System University, priority 2001, dated 2004) can be followed below.

This experiment deals with contortrixobin digestion of Fg. The experiment can be described thus: Fibrinopeptide B release by contortrixobin, HPLC. In kind it is biochemical, human. Conditions: 1:5 ratio of Fg to rSdrG(50-597) (1.5 μM), 60 min. Here is the method: Superimposed chromatograms show the amount of fibrinopeptide released when the Fg-contortrixobin sample has no SdrG present (upper curve) and when the Fg-contortrixobin sample is incubated with 1.5 μM rSdrG(50-597) (lower curve) at the 60 min time point.
Analysis of Fibrinopeptide B Release by HPLC—As in chapter two, we monitored the fibrinopeptide release in the presence of SdrG and the β-fibrinogenase contortrixobin. The HPLC chromatograms shown in FIG. 10 show the expected fibrinopeptide release following digestion of Fg with contortrixobin superimposed with the fibrinopeptide release when Fg and contortrixobin are incubated with rSdrG(50-597). […] This is most likely because FpA is still intact on the Fg molecule, thus contortrixobin is not as effective at cleaving Fg due to steric hindrance from FpA.

Entries after “also recorded” stand apart in the source; their conditions may differ.

B1: rSdrG(50-597): recombinant His-tagged A region (residues 50-597) of SdrG, a fibrinogen-binding MSCRAMM from S. epidermidis (protein)
chain: HHHHHHAEENTVQDVKDSNMDDELSDSNDQSSNEEKNDVINNSQSINTDDDNQIKKEETNSNDAIENRSKDITQSTTNVDENEATFLQKTPQDNTQLKEEVVKEPSSVESSNSSMDTAQQPSHTTINSEASIQTSDNEENSRVSDFANSKIIESNTESNKEENTIEQPNKVREDSITSQPSSYKNIDEKISNQDELLNLPINEYENKVRPLSTTSAQPSSKRVTVNQLAAEQGSNVNHLIKVTDQSITEGYDDSDGIIKAHDAENLIYDVTFEVDDKVKSGDTMTVNIDKNTVPSDLTDSFAIPKIKDNSGEIIATGTYDNTNKQITYTFTDYVDKYENIKAHLKLTSYIDKSKVPNNNTKLDVEYKTALSSVNKTITVEYQKPNENRTANLQSMFTNIDTKNHTVEQTIYINPLRYSAKETNVNISGNGDEGSTIIDDSTIIKVYKVGDNQNLPDSNRIYDYSEYEDVTNDDYAQLGNNNDVNINFGNIDSPYIIKVISKYDPNKDDYTTIQQTVTMQTTINEYTGEFRTASYDNTIAFSTSSGQGQGDLPPE
Take B1: the “FpB release by contortrixobin” value was “effectively inhibit FpB release; also recorded: decrease in the amount of FpB released”. The “FpB release by contortrixobin” value (listed as rSdrG (50-597)) is reported as “A decrease in the amount of FpB release”.
